Reference: patent US20250295799A1 (Zymeworks, published 2025)
Substitutions are numbered along the chain they refer to.

What was measured:
[1] = target: KLH (Sigma-Aldrich, H8283); experiment: NS-ELISA, plate coated with KLH, antibody at 100 nM
Method: 50 μL each of insulin, KLH, dsDNA and ssDNA were added to a 96 well plate, followed by the incubation at 37° C. for 2 h. The coating materials were removed, and the plate was blocked with 200 μL of Gibco™ PBS pH7.4, 0.1% Tween®20, and incubated for 1 h at room temperature with shaking at 200 rpm. The plate was washed 3 times with Gibco™ PBS pH7.4, 0.1% Tween 20. 50 μL of each mAb at 100 nM (15 mg/mL) in Gibco™ PBS pH 7.4, 0.1% Tween®20 was added in duplicate to the wells and incubated for 1 h at room temperature with shaking at 200 rpm. Plates were washed three times with Gibco™ PBS pH7.4, 0.1% Tween 20, and 50 μL of 50 ng/mL anti-human IgG HRP (Thermofisher Scientific©, H₁₀₃₀₇) was added to each well. Plates were incubated for 1 h at room temperature, with shaking at 200 rpm. The plate was washed three times with Gibco™ PBS pH7.4, 0.1% Tween 20, and 100 μL of TMB substrate (Cell Signaling Technology©, 7004P6) added to each well. […] Binding scores were calculated as the ratio of the ELISA signal of the antibody to the signal of a well containing buffer instead of the primary antibody. The cutoffs considered for each binding molecule (ssDNA. KLH, Insulin, dsDNA and Heparin) were internally calculated.

[2] = target: T1, human GPC3 on cells (human, UniProt P51654 25-554); experiment: flow cytometry, HepG2 cells; apparent Kd
T1 construct: GPI-anchored protein on transfected CHO-S cells, on human tumor cell lines or on HEK293T cells; the cell is named under assay; also called human GPC3 on CHO-S transfected cells; HuGPC3-CHO
Method: (§1) Briefly, cells were seeded at 50,000 cells/well in V-bottom 96-well plates and treated with antibody for 24 hours at 4° C. to prevent internalization. […] Following incubation and washing, fluorescence was detected by flow cytometry on a BD LSRFortessa™ Cell Analyzer (BD Biosciences, Franklin Lake, NJ) with 1,000 minimum events collected per well. AF647/APC-A GeoMean (fluorescence signal geometric mean, proportional to anti-Human AF647 binding) in live cell population was plotted against antibody concentration using GraphPad Prism Version 9 (GraphPad Software, San Diego, CA). The Bmax, Curve Hill Slope (h) and Kd values were derived from the “Specific binding with Hill slope” nonlinear regression curve fit in GraphPad Prism Version 9.

[3] = target: T1, human GPC3 on cells; experiment: flow cytometry, HepG2 cells
Method: as §1

[4] = target: T1, human GPC3 on cells; experiment: flow cytometry on HepG2 cells (GPC3-high), 24 h at 4 C, anti-human IgG Fc AF647
Method: as §1

[5] = target: T1, human GPC3 on cells; experiment: cell-based or functional assay
[6] = target: T2, recombinant human GPC3 (ACROBiosystems) (human, UniProt P51654 25-559); experiment: SPR; Kd on huGPC3 over Kd on cynoGPC3
T2 construct: bought antigen of the SPR assays, SEC purified; also called huGPC3; hGPC3
Method: (§2) Antigens: recombinant human and cynomolgus GPC3 was purchased from ACROBiosystems (Newark, DE) and SEC purified on a Superdex 200 10/300 GL column (Cytiva) in PBST running buffer at 0.8 mL/min.
(§3) Screening of the antibodies for binding to GPC3 antigen was conducted via anti-Fc capture of antibodies, followed by the injection of five concentrations of GPC3. The anti-Fc surface was prepared on a CM5 Series S sensor chip by standard amine coupling methods as described by the manufacturer (Cytiva Life Sciences, Mississauga, ON, Canada). […] Approximately 500-600 RUs of each antibody (1-3 μg/mL) were captured on the goat anti-human IgG surface by injecting at 10 μL/min for 60s. Using single-cycle kinetics, five concentrations of a two-fold dilution series of human or cynomolgus GPC3 starting at 40 nM (or 20 nM) with a blank buffer control were injected at 40 μL/min for 180s of contact time, followed by 180 s (or 300 s) dissociation phase, resulting in sensorgrams with a buffer blank reference. The anti-Fc surface was regenerated to prepare for the next injection cycle by one pulse of 10 mM glycine/HCl pH 1.5 for 180 s at 40 μL/min. Blank-subtracted sensorgrams were analyzed using Biacore™ T200 Evaluation Software v3.0. The blank-subtracted sensorgrams were then fit to the 1:1 Langmuir binding model.

[7] = target: T1, human GPC3 on cells; experiment: flow cytometry, JHH-7 cells; apparent Kd
Method: as §1

[8] = target: T1, human GPC3 on cells; experiment: flow cytometry on JHH-7 cells (GPC3-high), 24 h at 4 C, anti-human IgG Fc AF647
Method: as §1

[9] = target: T2, recombinant human GPC3 (ACROBiosystems); experiment: SPR, antibody captured on anti-Fc, GPC3 injected, 1:1 fit
Method: as §2, §3

[10] = target: T3, recombinant cynomolgus GPC3 (ACROBiosystems) (cynomolgus monkey, UniProt A5A6P7 25-559 (Pan troglodytes entry), limits assumed); experiment: as above
T3 construct: bought antigen of the SPR assays; also called cynoGPC3
Method: as §2, §3

[11] = target: T1, human GPC3 on cells; experiment: flow cytometry, JHH-7 cells
Method: as §1

[12] = target: T1, human GPC3 on cells; experiment: flow cytometry on JHH-5 cells (GPC3-mid), 24 h at 4 C, anti-human IgG Fc AF647
Method: (§4) Cell lines investigated included GPC3-hi HepG2 and JHH-7 cells, GPC3-mid JHH-5 cells, as well as GPC3-negative SNU-601 cells.
as §1

[13] = target: T4, cynomolgus monkey GPC3 on CHO-S transfected cells (cynomolgus monkey, UniProt A5A6P7 25-554 (Pan troglodytes entry)); experiment: flow cytometry, CHO-S cells transfected with cynomolgus monkey GPC3; apparent Kd
T4 construct: transient expression from a pTT5-based plasmid; also called CHO-S Cyno GPC3; CynoGPC3-CHO
Method: (§5) Briefly, CHO—S cells were transiently transfected for −24 hours with a pTT5-based expression plasmid encoding human GPC3 or cynomolgus monkey GPC3, 0.5 μg DNA per 1 million cells, using the Neon™ Transfection System (Thermo Fisher Scientific Corp., Waltham, MA), to transiently express human or cynomolgus monkey GPC3. Following transfection, cells were seeded at 50,000 cells/well in V-bottom 96-well plates and treated with antibody for 24 hours at 4° C. to prevent internalization. […] Following incubation and washing, fluorescence was detected by flow cytometry on a BD LSRFortessa™ Cell Analyzer (BD Biosciences, Franklin Lake, NJ) with 1,000 minimum events collected per well. AF647/APC-A GeoMean (fluorescence signal geometric mean, proportional to anti-Human AF647 binding) in live cell population was plotted against antibody concentration using GraphPad Prism Version 9 (GraphPad Software, San Diego, CA). The Bmax and Kd values were derived from the “Specific binding with Hill slope” nonlinear regression curve fit in GraphPad Prism Version 9.

[14] = target: T1, human GPC3 on cells; experiment: flow cytometry, CHO-S cells transfected with human GPC3; apparent Kd
Method: as §5

[15] = target: T5, FcgR1A (human, UniProt P12314 16-374); experiment: Membrane Proteome Array: high-throughput flow cytometry on unfixed HEK293T cells, each well expressing one human membrane protein; antibody at 1.25 ug/mL; the text ascribes this to the Fc portion
T5 construct: whole, on cells
T5 sequence (P12314 16-374): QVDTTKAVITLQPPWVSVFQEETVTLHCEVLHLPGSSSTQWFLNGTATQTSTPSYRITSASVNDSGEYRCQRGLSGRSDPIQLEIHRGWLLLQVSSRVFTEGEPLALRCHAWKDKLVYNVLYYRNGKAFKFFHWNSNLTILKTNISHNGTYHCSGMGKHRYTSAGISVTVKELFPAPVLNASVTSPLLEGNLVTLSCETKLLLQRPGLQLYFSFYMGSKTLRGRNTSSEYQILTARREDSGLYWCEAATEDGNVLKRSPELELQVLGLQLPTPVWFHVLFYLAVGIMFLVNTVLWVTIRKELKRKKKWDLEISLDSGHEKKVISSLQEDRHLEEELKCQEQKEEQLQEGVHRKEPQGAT
Method: Briefly, the study consisted of three phases: phase (1) determination of assay screening conditions, phase (2) membrane proteome array (library) screen and phase (3) protein target validation. […] In phase (3), each protein target hit from the screen stage (potential off-target interactions) was assessed in titration experiment using flow cytometry.

[16] = target: T1, human GPC3 on cells; experiment: flow cytometry on HepG2 cells (GPC3-high), 24 h at 4 C, anti-human IgG Fc AF647; remark: listed apart in the source
Method: as §4, §1

[17] = target: T1, human GPC3 on cells; experiment: flow cytometry on JHH-7 cells (GPC3-high), 24 h at 4 C, anti-human IgG Fc AF647; remark: listed apart in the source
Method: as §4, §1

[18] = target: T1, human GPC3 on cells; experiment: flow cytometry on CHO-S cells transiently transfected with human GPC3, 24 h at 4 C, anti-human IgG Fc AF647
Method: as §5

[19] = target: T1, human GPC3 on cells; experiment: flow cytometry, JHH-7 cells; remark: listed apart in the source
[20] = target: T1, human GPC3 on cells; experiment: flow cytometry, JHH-5 cells
[21] = target: T2, recombinant human GPC3 (ACROBiosystems); experiment: SPR

B1: v36180 (M3-H1L1) (antibody, human IgG1, kappa, V domains shown)
VH: EVQLVQSGAEVKKPGSSVKVSCKASGYTFTDYEMHWVRQAPGQGLEWIGAIDPETGDTAYNQKFKGRATLTADKSTSTAYMELSSLRSEDTAVYYCTRYFSFAYWGQGTLVTVSS
VL: DVQMTQSPSSVSASVGDRVTITCRSSQSLRHSNGNTYLQWYQQKPGKAPKLLIYKVSNRFSGVPSRFSGSGSGTDFTLTISSLQPEDFATYFCYQSKHVPYTFGQGTKVEIKR
notes: humanized full-size IgG1 (IGHG1*01)/kappa antibody; heavy chain ends at G446 (EU); also called M3-HIL1
B1 was tested, and the NS-ELISA binding score [1] was 5.45 ratio to buffer well, the Kd [2] was 0.91 nM and the Bmax [3] was 40000. The “EC50 (read off the curve)” value [4] was roughly 0.9 nM, the “internalized fluorescence, fold increase over palivizumab, Hep G2, 5 hours, 10 nM” value [5] was 17 fold and the “internalized fluorescence, fold increase over palivizumab, Hep G2, 24 hours, 10 nM” value [5] was 66.2 fold. The “internalized fluorescence, fold increase over palivizumab, JHH-7, 5 hours, 10 nM” value [5] was 8.6 fold, the “internalized fluorescence, fold increase over palivizumab, JHH-7, 24 hours, 10 nM” value [5] was 46.4 fold and the “Fold difference (hu/cyno)” value [6] was 1.1 fold. For the same binder, the Kd [7] was 0.25 nM, the “EC50 (read off the curve)” value [8] was roughly 0.3 nM and the Kd [9] was 10.5 nM. The Kd [10] was 9.67 nM and the Bmax [11] was 9340.

B2: v37574 (M3-H18L6) (antibody, human IgG1, kappa)
heavy: not shown
light: EIVLTQSPATLSLSPGERATISCRSSQSLRHSNGNTYLQWYQQKPGQAPRLLIYKVSNRFSGVPARFSGSGSGTDFTLTISSLEPEDFAVYFCYQSKHVPYTFGGGTKVEIKRTVAAPSVFIFPPSDEQLKSGTASVVCLLNNFYPREAKVQWKVDNALQSGNSQESVTEQDSKDSTYSLSSTLTLSKADYEKHKVYACEVTHQGLSSPVTKSFNRGEC
notes: humanized full-size IgG1 (IGHG1*01)/kappa antibody without heavy chain C-terminal lysine
In the case of B2, the “EC50 (read off the curve)” value [12] is reported as roughly 0.2 nM, the NS-ELISA binding score [1] is reported as 0.91 ratio to buffer well and the Kd [2] is reported as 1.1 nM. The Bmax [3] was 33900, the “EC50 (read off the curve)” value [4] was roughly 0.7 nM and the Kd [13] was 0.38 nM. The Kd [7] was 0.22 nM, the “EC50 (read off the curve)” value [8] was roughly 0.2 nM and the Kd [9] was 11.1 nM. The Kd [10] was 11.1 nM, the Kd [14] was 0.53 nM and the Bmax [11] was 8520.

B3: v38592 (M3-H18L6 with HC C-terminal lysine) (antibody, human IgG1, kappa)
heavy: not shown
light: B2 light
notes: identical to v37574 but the cDNA of the heavy chains encodes a C-terminal lysine; also called M3-H18L6 (WT) mAb; wild-type M3-H18L6
B3: binds [15].

B4: v38592-MC-GGFG-AM-Compound 139, DAR 8 (antibody, human IgG1, kappa)
heavy: not shown
light: B2 light
modifications: MC-GGFG-AM-Compound 139 drug-linker on reduced cysteines, sites not stated; MC-GGFG-AM-Compound 139 drug-linker on reduced cysteines, sites not stated; DAR 8 for the whole antibody
notes: antibody-drug conjugate
In the case of B4, the “EC50 (read off the curve)” value [16] is reported as roughly 7 nM and the “EC50 (read off the curve)” value [17] is reported as roughly 0.8 nM.

B5: v38592-MC-GGFG-AM-Compound 139, DAR 4 (antibody, human IgG1, kappa)
heavy: not shown
light: B2 light
modifications: MC-GGFG-AM-Compound 139 drug-linker on reduced cysteines, sites not stated; MC-GGFG-AM-Compound 139 drug-linker on reduced cysteines, sites not stated; DAR 4 for the whole antibody
notes: antibody-drug conjugate
B5 was tested, and the “EC50 (read off the curve)” value [12] was roughly 0.4 nM, the “EC50 (read off the curve)” value [16] was roughly 9 nM and the “EC50 (read off the curve)” value [17] was roughly 0.9 nM. The “EC50 (read off the curve)” value [18] was roughly 0.3 nM.

B6: v40215 (H18L6_LC_N33V mAb) (antibody, human IgG1, kappa, V domains shown)
VH: B1 VH with E1Q, R38K, Q43H, R67K, K74T
VL: EIVLTQSPATLSLSPGERATISCRSSQSLRHSVGNTYLQWYQQKPGQAPRLLIYKVSNRFSGVPARFSGSGSGTDFTLTISSLEPEDFAVYFCYQSKHVPYTFGGGTKVEIKR
notes: as for v40203
In the case of B6, the “fold increase in Kd from wild-type” value [19] is reported as greater than 2 fold.

B7: v40213 (H18L6_LC_N33E mAb) (antibody, human IgG1, kappa, V domains shown)
VH: B1 VH with E1Q, R38K, Q43H, R67K, K74T
VL: B6 VL with V33E
notes: as for v40203
In the case of B7, the “fold increase in Kd from wild-type” value [20] is reported as roughly 29 fold.

B8: v37575 (codrituzumab) (antibody, human IgG1, kappa, V domains shown)
VH: QVQLVQSGAEVKKPGASVKVSCKASGYTFTDYEMHWVRQAPGQGLEWMGALDPKTGDTAYSQKFKGRVTLTADKSTSTAYMELSSLTSEDTAVYYCTRFYSYTYWGQGTLVTVSS
VL: DVVMTQSPLSLPVTPGEPASISCRSSQSLVHSNRNTYLHWYLQKPGQSPQLLIYKVSNRFSGVPDRFSGSGSGTDFTLKISRVEAEDVGVYYCSQNTHVPPTFGQGTKLEIKR
notes: also called GC33; RG-7686
B8 was tested, and the “fold higher affinity than M3-H18L6” value [21] was roughly 10 fold, the NS-ELISA binding score [1] was 1.11 ratio to buffer well and the Kd [2] was 1.2 nM. For the same binder, the Bmax [3] was 42300, the “EC50 (read off the curve)” value [4] was roughly 1 nM and the “internalized fluorescence, fold increase over palivizumab, Hep G2, 5 hours, 10 nM” value [5] was 14.4 fold. The “internalized fluorescence, fold increase over palivizumab, Hep G2, 24 hours, 10 nM” value [5] was 57.2 fold, the “internalized fluorescence, fold increase over palivizumab, JHH-7, 5 hours, 10 nM” value [5] was 8.5 fold and the “internalized fluorescence, fold increase over palivizumab, JHH-7, 24 hours, 10 nM” value [5] was 46.7 fold. For the same binder, the “Fold difference (hu/cyno)” value [6] was 1 fold, the Kd [13] was 0.98 nM and the Kd [7] was 0.26 nM. For the same binder, the “EC50 (read off the curve)” value [8] was roughly 0.3 nM, the Kd [9] was 0.91 nM and the Kd [10] was 0.91 nM. It also gave a Kd [14] of 1.23 nM and a Bmax [11] of 9000.
